± gives the standard deviation.
Assay: protein stability index of a GFP-peptide fusion (GPS, HEK-293T) (PSI 1-6); higher = more stable
Settings: c terminus: a fixed tail appended
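Further: 24-mer peptide tiles fused after GFP, lentivirally expressed, FACS-sorted into six equal bins by GFP/DsRed ratio, decoded by Illumina sequencing, PSI is the read-weighted mean bin number.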

Sequence | protein stability index (treatment: DMSO) | protein stability index (treatment: MLN4924 1 uM, 8 h)
MTSTGQDSTTTRQRRSRQNPQSPP [HDAC6] | 5.46 ± 0.14 | 5.4 ± 0.12
ALGWAPAAPPPLKDDPEGDRDGCV [ZBED3] | 5.34 ± 0.17 | 5.54 ± 0.3
WIRICRPGSIIGPQQHFLEEKQAS [CDC14A] | 2.18 ± 0.46 | 2.36 ± 0.48
VGKSEILESLQDGAAESPYSHLGG [RAB40A] | 4.56 ± 0.27 | 4.46 ± 0.19
STLVEVTLGEVPAAESPDPPQSPQ [MAGEA3] | 5.39 ± 0.14 | 5.27 ± 0.17
LNPHVHLVGDDAACIAYIRLTQYM [CAMK2D] | 2.32 ± 0.38 | 2.29 ± 0.66
VEKQGDTIEYLKRHNALLSKRLLA [TMEM192] | 2.87 ± 0.13 | 2.93 ± 0.27
ALSSFREESRFCDAHLVLDGEEIP [GAN] | 4.51 ± 0.18 | 4.59 ± 0.14
LDNTKKKMEIYQKENKDVIQKNKL [MNAT1] | 4.44 ± 0.2 | 4.34 ± 0.18
VIFQREQESKNQVHRRGEYNVYST [PPP2R2B] | 3.06 ± 0.14 | 3.04 ± 0.23
DKPGTTQIVQLTQQVDTNISVILP [DENND6A] | 3.48 ± 0.23 | 3.68 ± 0.38
PLLKLACTNTYVTGLSMIANGGAI [OR4A15] | 2.15 ± 0.58 | 2.21 ± 0.72
LEVAMEEEGLADEEKKLRRSQHAR [STK38L] | 5.43 ± 0.3 | 5.27 ± 0.35
SGPMQAALQAAAHASVDIKDVLDF [SMG5] | 4.42 ± 0.17 | 4.18 ± 0.1
IEFNPRIGKWFDFKLFFNGRPGIV [DHCR7] | 2.63 ± 0.44 | 2.91 ± 0.91
DQIGSEIIEELGEQRDQLERTKSR [VTI1B] | 5.53 ± 0.24 | 5.47 ± 0.37
IAKHLKGRLGKQCRERWHNHLNPE [MYBL2] | 2.25 ± 0.21 | 2.23 ± 0.13
AYTRYLGDLSGGQVLKKIAQKALD [HMOX1] | 2.29 ± 0.19 | 2.23 ± 0.34

Sequence | protein stability index (treatment: DMSO) | protein stability index (treatment: MLN4924 1 uM, 8 h)
TSQEIFRQRFRHLRYQETPGPREA [ZNF232] | 3.63 ± 0.36 | 3.6 ± 0.28
SDGILRGNGTGYLPGRGRVLSSWS [RHOBTB2] | 3.42 ± 0.2 | 3.26 ± 0.3
GGLGGGYGGGLGGGFGGGFAGGFV [KRT13] | 2.16 ± 0.25 | 2.1 ± 0.82
GNIIAHASTTRLYLRKGRGETRIC [RAD51] | 3.11 ± 0.44 | 3.16 ± 0.34
AGRAAAPELSYRVCVGSDVTSIHK [MYORG] | 3.32 ± 0.17 | 3.35 ± 0.24
QRQAIKGAFYRRAQRLRPQDEPRQ [KCNG1] | 3.87 ± 0.24 | 4.16 ± 0.22
IWDINNQICTVKDIKAEPQPLSPA [ATF6] | 3.96 ± 0.21 | 4.1 ± 0.24
THFASQEFFSANAISDQLLGAGSD [ADAMTSL2] | 4.27 ± 0.23 | 4.23 ± 0.25
PLVYKAIQQGINAVNQEAMNNAQR [ACSBG2] | 3.331 ± 0.031 | 3.45 ± 0.23
SGYHYGVWSCEGCKAFFKRSIQGH [ESR2] | 2.03 ± 0.33 | 2.52 ± 0.41
IIKQLQKGVQQKRPSEAQSVILRR [DENND6A] | 3.08 ± 0.2 | 2.9 ± 0.14
VAIFIMSLNKRHSSGDGNSKLKSE [MFSD9] | 2.77 ± 1.2 | 2.16 ± 0.12
AVNQKIDRESLCGASTSCLLPVQV [PCDHGC5] | 2.99 ± 0.13 | 3.26 ± 0.65
PTGEGSISHEEQKSVRLARELESR [CHCHD6] | 5.33 ± 0.17 | 5.35 ± 0.33
YVRRLDFFEKPDYDYLRKLFTDLF [CSNK1G3] | 2.45 ± 0.52 | 2.06 ± 0.27
EFFSANAISDQLLGAGSDLKDFTL [ADAMTSL2] | 2.97 ± 0.26 | 3.22 ± 0.42
NRGLILYRLGYFDDALEDFKKVLD [TTC32] | 2.05 ± 0.59 | 2.24 ± 0.14
ASLQASIFSGAASLGYGTNVAATG [APBB1IP] | 2.95 ± 0.27 | 2.85 ± 0.33

Reference: the supplement of paper PMC10567573
